The target of test [1] is human PAX 5 protein (human) (UniProt Q02548). The experiment in a line: IHC, Reed Sternberg cells, Hodkins lymphoma 2, antibody at 3 ug/mL.
The target is the same in test [2]. The experiment in a line: IHC, Reed Sternberg cells, Hodkins lymphoma 4, antibody at 3 ug/mL.
Test [3] has the same target. The experiment in a line: IHC, Reed Sternberg cells, Hodkins lymphoma 1, antibody at 3 ug/mL.
Test [4] shares this target. The test can be described thus: IHC, Reed Sternberg cells, Hodkins lymphoma 3, antibody at 3 ug/mL.

UniProt Q02548, sequence (Q02548 whole entry): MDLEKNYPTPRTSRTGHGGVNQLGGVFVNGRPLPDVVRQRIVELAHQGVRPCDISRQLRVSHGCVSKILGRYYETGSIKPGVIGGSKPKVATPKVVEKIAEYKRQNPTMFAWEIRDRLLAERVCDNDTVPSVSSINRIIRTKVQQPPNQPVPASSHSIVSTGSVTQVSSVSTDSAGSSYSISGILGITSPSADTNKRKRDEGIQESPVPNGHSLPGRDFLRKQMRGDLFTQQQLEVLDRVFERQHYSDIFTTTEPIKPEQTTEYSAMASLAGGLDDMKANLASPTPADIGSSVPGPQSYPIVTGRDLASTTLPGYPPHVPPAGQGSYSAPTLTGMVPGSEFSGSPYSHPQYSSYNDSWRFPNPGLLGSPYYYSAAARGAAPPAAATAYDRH

For the substance “monoclonal mouse B-Cell Specific Activator Protein (BSAP), clone DAK-Pax5 (antibody)”, the IHC staining intensity score (score on a scale of 0 to 6) in test [1] came to 0; in test [2], 6; in test [3], 6; in test [4], 2.
With “monoclonal mouse PAX 5, clone 24 (BD Biosciences) (antibody)”, the IHC staining intensity score (score on a scale of 0 to 6) in test [1] was 0; in test [2] it was 2; in test [3], 2; in test [4], 1.

The values above are taken from US20110177077A1.
